# Results as given in patent US20060199228A1 (KING S COLLEGE LONDON, published 2006).
# B1: preproinsulin peptide C19-A3 (peptide)
# peptide: GSLQPLALEGSLQKRGIV
# notes: Synthetic peptide; also called PI C19-A3; Proinsulin C19-A3
# Target: T1, HLA-DR4 immunoaffinity-purified from Priess EBV-transformed B cells (DRB1*0401)
# T1 construct: Detergent-solubilised native protein, purified with the anti-HLA-DR mAb L243; Priess cells also carry DRw53, which the L243 column would not separate; The elution used cells pulsed with preproinsulin; also called soluble HLA-DR4
# Experiment: competition against 2.5 µM biotinylated invariant chain 98-117 for purified HLA-DR4, L243 capture, DELFIA
# Experimental: A further selection step was applied based on the following novel initiative. […] HLA-DR4 molecules used in this assay were purified from resting, unmanipulated Priess cell pellets, using the immunoaffinity column approach described above in method 1.1. […] Plates were incubated for a further 1 hour at room temperature and washed 5 times in TBST. Europium-conjugated streptavidin (Perkin Elmer Ltd., Hounslow, UK) was added at 1 μg/ml in dissociation-enhanced time-resolved fluoroimmunoassays (DELFIA) assay buffer (Wallac Oy, Turku, Finland) and incubated for 45 minutes at room temperature. Wells were washed a further 5 times in TBST and 100 μl DELFIA enhancement solution added to each well. Fluorescent intensity was measured in a DELFIA fluorimeter.
row,Binder,IC50
1,DLQVGQVELGGGPGAGSLQPLALE [preproinsulin peptide C4-C27],3000 nM
2,B1,500 nM
3,QPLALEGSLQKRGIVEQ (Synthetic peptide) [preproinsulin peptide C22-A5],400 nM
4,EDLQVGQVELGGGPGAGSLQPLAL [preproinsulin peptide C3-C26],3000 nM
5,GGGPGAGSLQPLALEGSLQK (Synthetic peptide; also called C13-32) [preproinsulin peptide C13-C32],5000 nM
